Data as given in PMC2440032, “Odorranalectin Is a Small Peptide Lectin with Potential for Drug Delivery and Targeting” (PLoS ONE, 2008).

What was measured:
[1] = target: Bovine submaxillary mucin (bovine, heavily O-glycosylated (sialylated) mucin preparation; the polypeptide is not given, and the main bovine submaxillary mucin (MUC19) is assumed with limits from the CHAIN feature; the pre); test: SPR; Biacore 3000; odorranalectin immobilised on sensor chip CM-5 by amine coupling, glycoproteins as analytes diluted in HBS-EP (10 mM HEPES-buffered saline, 3 mM EDTA, 0.005% surfactant P-20, pH 7.4); 1:1 binding model; KD calculated from ka and kd; details: both partners purified
[2] = target: T1, fetuin (UniProt P12763 19-359); test: as above; details: both partners purified
T1 sequence (looked up): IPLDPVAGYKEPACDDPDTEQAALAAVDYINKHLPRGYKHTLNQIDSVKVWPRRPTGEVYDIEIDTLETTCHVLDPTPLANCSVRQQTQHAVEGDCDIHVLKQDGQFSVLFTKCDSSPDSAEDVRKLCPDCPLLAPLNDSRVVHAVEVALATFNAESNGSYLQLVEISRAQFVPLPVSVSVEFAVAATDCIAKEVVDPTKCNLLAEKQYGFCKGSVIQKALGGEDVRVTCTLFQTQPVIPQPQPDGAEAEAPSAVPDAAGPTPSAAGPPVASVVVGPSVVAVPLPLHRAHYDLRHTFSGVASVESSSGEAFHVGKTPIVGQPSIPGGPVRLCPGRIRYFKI

B1: odorranalectin (peptide)
peptide: YASPKCFRYPNGVLACT
notes: odorranalectin, mature 17-residue peptide at the C-terminus of the 61-residue precursor, Odorrana grahami; follows the di-basic site K42R43 of the precursor; One intramolecular disulfide bond Cys6-Cys16; Immobilised on a CM-5 chip by amine coupling; Details of purification and synthesis are in Materials and Methods S1; also called lectin-like peptide; source: purified from O. grahami skin …
**Q.** How did the Kd [1] turn out when B1 was run?
**A.** 2900 nM

**Q.** And the Kd [2]?
**A.** 211 nM
